The text below walks through data of patent publication CN117551199A (HANGZHOU RONGGU BIOTECHNOLOGY CO LTD, dated 2024).

First the molecules themselves.
T1: CLDN18.2 (Claudin18.2) expressed on cells (UniProt P56856-2 1-261)
T1 construct: whole, on cells; also called K562-CLDN18.2
T1 sequence (looked up): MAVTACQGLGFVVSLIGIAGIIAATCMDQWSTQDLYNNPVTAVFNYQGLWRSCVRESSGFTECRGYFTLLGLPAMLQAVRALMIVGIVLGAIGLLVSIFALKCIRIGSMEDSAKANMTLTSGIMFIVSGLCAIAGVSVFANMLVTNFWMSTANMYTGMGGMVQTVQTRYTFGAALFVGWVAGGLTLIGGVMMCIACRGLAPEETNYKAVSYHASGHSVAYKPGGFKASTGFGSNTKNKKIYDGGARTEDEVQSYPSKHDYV

B1: Claudin18.2纳米抗体 10B (VHH)
VHH: EVQLVESGGGSVQAGGSLRLSCAASEQTYNRYCMGWFRQAPGKEREGVADINWRGIPNYSDSVKGRFTISQDHAKNTLYLQMNSLKPEDTAMYYCAARRGLPVVGCYDEYNIWGQGTQVTVSS
notes: Bactrian camel VHH, made in a cell-free system and purified on His beads; detected through a Myc tag; also called Claudin18.2nb; not shown: N-terminal tag of the cell-free construct (8His-GSG and vector-derived residues, known only from primer DNA); amino acid; C-terminal Myc tag (detected with anti-Myc-Tag 9B11)
B2: Claudin18.2纳米抗体 12B (VHH)
VHH: EVQLVESGGGSVQAGGSLRLSCAVSGYTYNLKYMGWFRQAPGKEREPVAFIYLGGDNQYYAPSVKDRFTISQDNAKNTVYLQMNSLKPDDTAMYYCAATTALLFLAQTSSWNYWGQGTQVTVSS
notes: Bactrian camel VHH, made in a cell-free system and purified on His beads; detected through a Myc tag; also called Claudin18.2nb; not shown: N-terminal tag of the cell-free construct (8His-GSG and vector-derived residues, known only from primer DNA); amino acid; C-terminal Myc tag (detected with anti-Myc antibody)
B3: Claudin18.2纳米抗体 11C (VHH)
VHH: DVQLQESGGGSVQAGGSLRLSCAASGAIYMRNYMAWFRQVPGKEREGVAGISASSGRTYYDDSVKGRFTISQDNAKNTVYLQMNSLKPEDTAMYFCAADPFQVMIDTMRYWGQGTQVTVSS
notes: as for B1
B4: Claudin18.2纳米抗体 2F (VHH)
VHH: QVQLVESGGGSVQAGGSLRLSCAGSGYVYPYYCMGWFRQAPGKERERVASIDRAGSQSYADSVKGRFTISKDNAKNTLYLQMGSLEPEDTAMYYCATDLGDGLWYSGCGTYRYWGQGTQVTVSS
notes: as for B1

This assay concerns the target T1, CLDN18.2 (Claudin18.2) expressed on …. The assay can be described thus: flow cytometry on K562-CLDN18.2 cells, anti-Myc-Tag detection.
Take B1: the binding result was “binds”.
As for B2, the entry is “binds”; as for B3, “binds”.
As for B4, the entry is “binds”.
